# Laboratory results from the supplement of paper PMC6755084.
# B1: minF1; the commonest letter at each place (parent)
# chain: GAGACCGCAACTGAAAAGTTGTTATCAGAAATGGATGGGTTGAATTTCTGCACGTAGAAGCAAAAGGC
# Variants of: B1
# Assay: fraction ligated after 30 min (ligated reads / total reads); higher = more ligase activity
# Settings: with F1*subA RNA substrate (template-directed ligation), 42 °C
# How it was run: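 Using barcoded primers for reverse transcription and a MiSeq for sequencing, gel-separated ligated and unligated RNAs of minimized ligase ribozyme variants were read, with core-base filtering at quality ≥30. Fraction ligated per variant was defined as ligated reads over total reads.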
row,Variant,fraction ligated
1,GAGACCGCAACTGAAAAGTTGTTATCAGTAATGGATGGGTTCAATTTCTGCACGTAGAAGCAAAAGGC,0.00612
2,GAGACCGCAACTGAAAAGTTGTTATCAGTAATGGATGGGTTAAATTTCTGCACGTAGAAGCAAAAGGC,0.269
3,GAGACCGCAACTGAAAAGTTGTTATCAGTAATGGATGGGTTTAATTTCTGCACGTAGAAGCAAAAGGC,0.0835
4,GAGACCGCAACTGAAAAGTTGTTATCAGACATGGATGGGTTCAATTTCTGCACGTAGAAGCAAAAGGC,0.00724
5,GAGACCGCAACTGAAAAGTTGTTATCAGACATGGATGGGTTTAATTTCTGCACGTAGAAGCAAAAGGC,0.0701
6,GAGACCGCAACTGAAAAGTTGTTATCAGACATGGATGGGTTAAATTTCTGCACGTAGAAGCAAAAGGC,0.217
7,GAGACCGCAACTGAAAAGTTGTTATCAGAGATGGATCGGTTGAATTTCTGCACGTAGAAGCAAAAGGC,0.00443
8,GAGACCGCAACTGAAAAGTTGTTATCAGAGATGGATAGGTTGAATTTCTGCACGTAGAAGCAAAAGGC,0.00857
9,GAGACCGCAACTGAAAAGTTGTTATCAGAGATGGATTGGTTGAATTTCTGCACGTAGAAGCAAAAGGC,0.0167
10,GAGACCGCAACTGAAAAGTTGTTATCAGACATGGTTGGGTTGAATTTCTGCACGTAGAAGCAAAAGGC,0.01
11,GAGACCGCAACTGAAAAGTTGTTATCAGACATGGGTGGGTTGAATTTCTGCACGTAGAAGCAAAAGGC,0.159
12,GAGACCGCAACTGAAAAGTTGTTATCAGACATGGCTGGGTTGAATTTCTGCACGTAGAAGCAAAAGGC,0.00575
13,GAGACCGCAACTGAAAAGTTGTTATCAGAGATGGGTGGGTTGAATTTCTGCACGTAGAAGCAAAAGGC,0.4
14,GAGACCGCAACTGAAAAGTTGTTATCAGAGATGGTTGGGTTGAATTTCTGCACGTAGAAGCAAAAGGC,0.0595
15,GAGACCGCAACTGAAAAGTTGTTATCAGAGATGGCTGGGTTGAATTTCTGCACGTAGAAGCAAAAGGC,0.0448
16,GAGACCGCAACTGAAAAGTTGTTATCAGTAATGAATGGGTTGAATTTCTGCACGTAGAAGCAAAAGGC,0.0752
17,GAGACCGCAACTGAAAAGTTGTTATCAGTAATGCATGGGTTGAATTTCTGCACGTAGAAGCAAAAGGC,0.00521
18,GAGACCGCAACTGAAAAGTTGTTATCAGTAATGTATGGGTTGAATTTCTGCACGTAGAAGCAAAAGGC,0.00673
19,GAGACCGCAACTGAAAAGTTGTTATCAGACAGGGATGGGTTGAATTTCTGCACGTAGAAGCAAAAGGC,0.019
20,GAGACCGCAACTGAAAAGTTGTTATCAGACAAGGATGGGTTGAATTTCTGCACGTAGAAGCAAAAGGC,0.0274

row,Variant,fraction ligated
1,GAGACCGCAACTGAAAAGTTGTTATCAGACACGGATGGGTTGAATTTCTGCACGTAGAAGCAAAAGGC,0.00933
2,GAGACCGCAACTGAAAAGTTGTTATCAGAGATGGATGGGTTGAATTTCTGCACGTAGAAGCAAAAGGC,0.807
3,GAGACCGCAACTGAAAAGTTGTTATCAGACATGGATGGGTTGAATTTCTGCACGTAGAAGCAAAAGGC,0.806
4,GAGACCGCAACTGAAAAGTTGTTATCAGTAATGGATTGGTTGAATTTCTGCACGTAGAAGCAAAAGGC,0.027
5,GAGACCGCAACTGAAAAGTTGTTATCAGTAATGGATAGGTTGAATTTCTGCACGTAGAAGCAAAAGGC,0.00694
6,GAGACCGCAACTGAAAAGTTGTTATCAGTAATGGATCGGTTGAATTTCTGCACGTAGAAGCAAAAGGC,0.00775
7,GAGACCGCAACTGAAAAGTTGTTATCAGTAATGGAAGGGTTGAATTTCTGCACGTAGAAGCAAAAGGC,0.0343
8,GAGACCGCAACTGAAAAGTTGTTATCAGTAATGGACGGGTTGAATTTCTGCACGTAGAAGCAAAAGGC,0.0219
9,GAGACCGCAACTGAAAAGTTGTTATCAGTAATGGAGGGGTTGAATTTCTGCACGTAGAAGCAAAAGGC,0.0504
10,GAGACCGCAACTGAAAAGTTGTTATCAGACATGGATAGGTTGAATTTCTGCACGTAGAAGCAAAAGGC,0.009
11,GAGACCGCAACTGAAAAGTTGTTATCAGACATGGATCGGTTGAATTTCTGCACGTAGAAGCAAAAGGC,0.00447
12,GAGACCGCAACTGAAAAGTTGTTATCAGACATGGATTGGTTGAATTTCTGCACGTAGAAGCAAAAGGC,0.01
13,GAGACCGCAACTGAAAAGTTGTTATCAGTAATCGATGGGTTGAATTTCTGCACGTAGAAGCAAAAGGC,0.721
14,GAGACCGCAACTGAAAAGTTGTTATCAGTAATTGATGGGTTGAATTTCTGCACGTAGAAGCAAAAGGC,0.453
15,GAGACCGCAACTGAAAAGTTGTTATCAGTAATAGATGGGTTGAATTTCTGCACGTAGAAGCAAAAGGC,0.783
16,GAGACCGCAACTGAAAAGTTGTTATCAGTAATGGATGGGTTGCATTTCTGCACGTAGAAGCAAAAGGC,0.065
17,GAGACCGCAACTGAAAAGTTGTTATCAGTAATGGATGGGTTGGATTTCTGCACGTAGAAGCAAAAGGC,0.0507
18,GAGACCGCAACTGAAAAGTTGTTATCAGTAATGGATGGGTTGTATTTCTGCACGTAGAAGCAAAAGGC,0.0859
19,GAGACCGCAACTGAAAAGTTGTTATCAGACATGAATGGGTTGAATTTCTGCACGTAGAAGCAAAAGGC,0.0885
